Data from publication PMC10672810, “Research of Multicopper Oxidase and Its Degradation of Histamine in Lactiplantibacillus plantarum LPZN19” (Microorganisms, 2023).

Assays:
[1] = substrate: NCCc1c[nH]cn1; assay: histamine degradation monitored by LC-MS; format: biochemical, Lactiplantibacillus plantarum; details: 50 °C, pH not stated for this assay
[2] = substrate: CCn1c(=NN=c2sc3cc(S(=O)(=O)O)ccc3n2CC)sc2cc(S(=O)(=O)O)ccc21; assay: ABTS oxidation, visible absorption, Lineweaver-Burk; format: biochemical, Lactiplantibacillus plantarum; details: MES buffer, pH 3.5, 50 °C, 2 h
Text: ABTS oxidation, visible absorption, Lineweaver-Burk on MCO (multicopper oxidase)

B1: MCO (multicopper oxidase) (Lactiplantibacillus plantarum WCFS1) (protein)
chain: MAKKVYTDYFFDEPAYNTHDGGYIPLVTPKVEPQPLAIPPLLKPDRQTDTDDYYTVTAQESETQFLPGKKTKTWGYNAGFLGQTIVFRNGKQTHIDLENKLPELTTFHWHGLNVPGPITDGGCHAPVYPGETNHIDFKVHQPAATTWLHAHPCPSTATQVWKGLATMVIIKDDVEDQLPLPRNYGVDDIPLVLQDREFHDDNQFDYRADYDPDGVQGHTALVNGTVNPYFDVTTQRVRLRILDGSNRREWRLHFNDDLEFAQVASDGGILPAPVYMTKVMMTCAERDEIVVDFGQYQPGDEVTLMTDDTPLCRFRIKSFVPDDTKLPEHLVDIPDETPTPDLPVRTITMDGMDDEVALDGKKFDMSRIDARQKVGDVAIWEIRNTNSTENGMVHPFHVHGTQFRVLARNDGPVYPNEHGLKDTVGVNPGETVRIKVKFELTGVYMYHCHIIEHEDGGMMAQIESYDPQHPQTYHLMDMDTLRNAFAKEQGIKPEDVWMPGM
notes: full length, 501 residues, no signal peptide; pET-28a EcoRI/HindIII, N-terminal His-tag (about 67 kDa on SDS-PAGE), E. coli BL21 (DE3), Ni-NTA; primers imply N-terminus MAKKVYTD and C-terminus WMPGM; peptides EFHDDNQFDYR, GLATMVIIKDDVEDOLPLPR
B1 showed a Km [1] of 2070 ± 180 µM, a Km [2] of 2180 ± 130 µM and a kcat [2] of 3.77 ± 0.09 s⁻¹. For the same protein, the kcat/Km [2] was 1730 ± 160 M⁻¹ s⁻¹.
